According to patent US20250282866A1 (VIGIL NEUROSCIENCE, published 2025):

T1: human TREM2 (human, UniProt Q9NZC2 19-174, limits assumed)
T1 construct: also called triggering receptor expressed on myeloid cells 2
T1 sequence: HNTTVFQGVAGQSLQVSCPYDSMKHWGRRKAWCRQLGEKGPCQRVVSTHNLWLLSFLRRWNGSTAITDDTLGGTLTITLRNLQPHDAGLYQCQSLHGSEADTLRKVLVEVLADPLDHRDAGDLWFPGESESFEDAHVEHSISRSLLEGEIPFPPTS


Key:
[1] = biological target: T1, human TREM2; experiment: 1st screen (110 nM or 10 nM)
[2] = biological target: T1, human TREM2; experiment: 2nd screen 10 nM
[3] = biological target: T1, human TREM2; experiment: 2nd screen 2 nM
[4] = biological target: T1, human TREM2; experiment: 2nd screen 100 nM

| Binding Signal (fold over 6E7 Parental antibody) [1] | Binding Signal (fold over 6E7 Parental antibody) [2] | Binding Signal (fold over 6E7 Parental antibody) [3] | Binding Signal (fold over 6E7 Parental antibody) [4] | Binder |
| --- | --- | --- | --- | --- |
| 1.68 fold | 1.92 fold | 1.29 fold | – | V1 (antibody, V domains shown) VH: EVQLVQSGAEVKKPGESLKISCKGSGYSFTSSWIAWVRQMPGKGLEWMGIIYPGDSDTRYSPSFQGQVTISADKSISTAYLQWSSLKASDTAMYFCARSRTFYYDSSDYFDYWGQGTLVTVSS VL: DIQMTQSPSSVSASVGDRVTITCRASQGISSWLAWYQQKPGKAPKLLIYAASSLTNGVPSRFSGSGSGTDFTLTISSLQPEDFATYFCQQADSYPRTFGQGTKLEIK |
| 6 fold | 5.51 fold | 5.88 fold | – | V4 (antibody, V domains shown) VH: EVQLVQSGAEVKKPGESLKISCKGSGYSFGSYWIAWVRQMPGKGLEWMGIIYPGDSDTRVSPSFQGQVTISADKSISTAYLQWSSLKASDTAMYFCARSRTFYYDSSDYFDYWGQGTLVTVSS VL: DIQMTQSPSSVSASVGDRVTITCRASQGISSWLAWYQQKPGKAPKLLIYAASRLQNGVPSRFSGSGSGTDFTLTISSLQPEDFATYFCQQADSYPRTFGQGTKLEIK |
| 1.31 fold | 1.35 fold | 1.15 fold | – | V13 (antibody, V domains shown) VH: EVQLVQSGAEVKKPGESLKISCKGSGYSFGSYWIAWVRQMPGKGLEWMGIIYPGDSDTRYSASFQGQVTISADKSISTAYLQWSSLKASDTAMYFCARGRTFYYDSSDYFDYWGQGTLVTVSS VL: DIQMTQSPSSVSASVGDRVTITCRASQGISSWLAWYQQKPGKAPKLLIYAASSLQGGVPSRFSGSGSGTDFTLTISSLQPEDFATYFCQQADSMPRTFGQGTKLEIK |
| 4.71 fold | 4.64 fold | 2.57 fold | – | V14 (antibody, V domains shown) VH: EVQLVQSGAEVKKPGESLKISCKGSGYSFGSYWIAWVRQMPGKGLEWMGIIYPGDQDTRYSPSFQGQVTISADKSISTAYLQWSSLKASDTAMYFCARGRTFYYDSSDYFDYWGQGTLVTVSS VL: DIQMTQSPSSVSASVGDRVTITCRASQGISSWLAWYQQKPGKAPKLLIYAASRLQNGVPSRFSGSGSGTDFTLTISSLQPEDFATYFCQQADSFPRTFGQGTKLEIK |
| 4.01 fold | 4.04 fold | 3.57 fold | – | V16 (antibody, V domains shown) VH: EVQLVQSGAEVKKPGESLKISCKGSGYSMTSYWIAWVRQMPGKGLEWMGIIYPGDGDTRYSPSFQGQVTISADKSISTAYLQWSSLKASDTAMYFCARSRTFYYDSSDYFDYWGQGTLVTVSS VL: DIQMTQSPSSVSASVGDRVTITCRASQGISSWLAWYQQKPGKAPKLLIYAASNLQNGVPSRFSGSGSGTDFTLTISSLQPEDFATYFCQQADSFPRTFGQGTKLEIK |
| 2.55 fold | 2.9 fold | 2.23 fold | – | V2 (antibody, V domains shown) VH: EVQLVQSGAEVKKPGESLKISCKGSGSSFTSYWIAWVRQMPGKGLEWMGIIYPGDGDTRYSPSFQGQVTISADKSISTAYLQWSSLKASDTAMYFCARSRTFYYDSSDYFDYWGQGTLVTVSS VL: DIQMTQSPSSVSASVGDRVTITCRASQGISSWLAWYQQKPGKAPKLLIYAASSRQNGVPSRFSGSGSGTDFTLTISSLQPEDFATYFCQQADRFPRTFGQGTKLEIK |
| 1.97 fold | 2.24 fold | 1.95 fold | – | V3 (antibody, V domains shown) VH: EVQLVQSGAEVKKPGESLKISCKGSGYSFASYWIAWVRQMPGKGLEWMGIIYPGDSDTRYSPSFQDQVTISADKSISTAYLQWSSLKASDTAMYFCARGRTFYYDSSDYFDYWGQGTLVTVSS VL: DIQMTQSPSSVSASVGDRVTITCRASQGISSWLAWYQQKPGKAPKLLIYAASSRQNGVPSRFSGSGSGTDFTLTISSLQPEDFATYFCQQADRFPRTFGQGTKLEIK |
| 2.64 fold | 2.9 fold | 1.42 fold | – | V24 (antibody, V domains shown) VH: EVQLVQSGAEVKKPGESLKISCKGSGYSFTSYWIAWVRQMPGKGLEWMGIIYPGDSDVRYSPSFQGQVTISADKSISTAYLQWSSLKASDTAMYFCARSRTFYYDSSDYFDYWGQGTLVTVSS VL: DIQMTQSPSSVSASVGDRVTITCRASQGISSWLAWYQQKPGKAPKLLIYAASSLQKGVPSRFSGSGSGTDFTLTISSLQPEDFATYFCQQADSFPHTFGQGTKLEIK |
| 5.23 fold | 4.78 fold | 4.72 fold | – | V15 (antibody, V domains shown) VH: EVQLVQSGAEVKKPGESLKISCKGSGYSFASYWIAWVRQMPGKGLEWMGTIYPGDSDTRYSPSFQGQVTISADKSISTAYLQWSSLKASDTAMYFCARSRTFYYDSSDYFDYWGQGTLVTVSS VL: DIQMTQSPSSVSASVGDRVTITCRASQGISSWLAWYQQKPGKAPKLLIYAASWLQNGVPSRFSGSGSGTDFTLTISSLQPEDFATYFCQQADSYPRTFGQGTKLEIK |
| 4.23 fold | 4.7 fold | 3.15 fold | – | V25 (antibody, V domains shown) VH: EVQLVQSGAEVKKPGESLKISCKGSGYSFGSYWIAWVRQMPGKGLEWMGLIYPGDSDTRYSPSFQGQVTISADKSISTAYLQWSSLKASDTAMYFCARSRTFYYDSSDYFDYWGQGTLVTVSS VL: DIQMTQSPSSVSASVGDRVTITCRASQGISSWLAWYQQKPGKAPKLLIYAASSLANGVPSRFSGSGSGTDFTLTISSLQPEDFATYFCQQADSMPRTFGQGTKLEIK |
| 0.31 fold | – | – | 0.87 fold | V94 (antibody, V domains shown) VH: EVQLVQSGAEVKKPGESLKISCKGSGYSFTSYWIAWVRQMPGKGLEWMGIIYPGDSDTRYSPSFQGQVTISADKSISTAYLQWSSLKASDTAMYFCARQRTFYYDSSDYFDYWGQGTLVTVSS VL: DIQMTQSPSSVSASVGDRVTITCRASQGISSWLAWYQQKPGKAPKLLIYAAASLQNGVPSRFSGSGSGTDFTLTISSLQPEDFATYFCQQADSFPRTFGQGTKLEIK |
| 2.73 fold | 2.84 fold | 1.25 fold | – | V5 (antibody, V domains shown) VH: EVQLVQSGAEVKKPGESLKISCKGSGYSFTSYWIAWVRQMPGKGLEWMGTIYPGDSDTRYSPSFQGQVTISADKSISTAYLQWSSLKASDTAMYFCARQRTFYYDSSDYFDYWGQGTLVTVSS VL: DIQMTQSPSSVSASVGDRVTITCRASQGISSWLAWYQQKPGKAPKLLIYAASSLQNGVPSRFSGSGSGTDFTLTISSLQPEDFATYFCQQADSHPRTFGQGTKLEIK |
| 5.37 fold | 5.51 fold | 4.22 fold | – | V17 (antibody, V domains shown) VH: EVQLVQSGAEVKKPGESLKISCKGSGYSFGSYWIAWVRQMPGKGLEWMGIIYPGDSDTRYSPSFQGQVTISADKSISTAYLQWSSLKASDTAMYFCARSRTFYYDSSDYFDYWGQGTLVTVSS VL: DIQMTQSPSSVSASVGDRVTITCRASQGISSWLAWYQQKPGKAPKLLIYAASSRQNGVPSRFSGSGSGTDFTLTISSLQPEDFATYFCQQADSSPRTFGQGTKLEIK |
